According to publication PMC10643903 (Journal of Innate Immunity, 2022):
Each block holds one binder with its values, some of them ahead of it.

Columns and labels:
[1] = biological target: recombinant full-length human C6 with a C-terminal 10xHis-tag (human, UniProt P13671 22-934); experiment: BLI
[2] = biological target: human C6 FIM1-2 fragment (residues 766–934) with an N-terminal 10xHis-tag (human, UniProt P13671 766-934); experiment: BLI
[3] = biological target: biotinylated AVI-tagged full-length human C6 (Homo sapiens, UniProt P13671, biotin on the AVI-tag (BirA ligase)); experiment: BLI
Chain of biotinylated AVI-tagged full-length human C6 (P13671 22-934): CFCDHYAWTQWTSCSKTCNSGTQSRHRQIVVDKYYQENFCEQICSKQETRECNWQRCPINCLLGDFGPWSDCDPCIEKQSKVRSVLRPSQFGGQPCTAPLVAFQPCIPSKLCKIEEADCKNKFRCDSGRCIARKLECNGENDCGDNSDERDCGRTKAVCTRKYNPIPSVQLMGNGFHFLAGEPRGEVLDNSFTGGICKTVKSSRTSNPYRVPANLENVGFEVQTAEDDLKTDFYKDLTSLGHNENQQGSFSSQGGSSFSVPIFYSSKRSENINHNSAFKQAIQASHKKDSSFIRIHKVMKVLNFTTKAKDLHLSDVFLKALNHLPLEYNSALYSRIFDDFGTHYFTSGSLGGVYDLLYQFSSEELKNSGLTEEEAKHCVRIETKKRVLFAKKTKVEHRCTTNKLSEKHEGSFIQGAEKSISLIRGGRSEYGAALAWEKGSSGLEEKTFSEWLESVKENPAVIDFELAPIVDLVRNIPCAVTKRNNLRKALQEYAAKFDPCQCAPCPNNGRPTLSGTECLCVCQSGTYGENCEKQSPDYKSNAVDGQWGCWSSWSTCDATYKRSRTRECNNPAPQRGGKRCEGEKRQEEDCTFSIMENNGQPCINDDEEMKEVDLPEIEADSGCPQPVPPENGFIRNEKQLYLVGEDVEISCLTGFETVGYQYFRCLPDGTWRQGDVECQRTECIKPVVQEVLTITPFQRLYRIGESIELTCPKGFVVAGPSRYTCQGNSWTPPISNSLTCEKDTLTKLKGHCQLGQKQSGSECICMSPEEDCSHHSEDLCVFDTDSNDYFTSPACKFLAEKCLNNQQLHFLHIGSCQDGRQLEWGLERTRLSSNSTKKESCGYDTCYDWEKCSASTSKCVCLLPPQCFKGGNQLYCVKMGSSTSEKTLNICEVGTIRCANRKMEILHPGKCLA

dog C6 FIM1-2 fragment = biological target: T1, dog C6 FIM1-2 fragment (Canis lupus familiaris); experiment: BLI
T1 chain: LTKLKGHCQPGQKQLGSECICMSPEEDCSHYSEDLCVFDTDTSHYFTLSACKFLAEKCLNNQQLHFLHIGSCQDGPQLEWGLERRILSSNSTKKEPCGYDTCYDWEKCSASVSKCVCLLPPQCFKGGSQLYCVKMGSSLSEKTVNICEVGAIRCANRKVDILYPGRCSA

[4] = biological target: pig (Sus scrofa) C6 FIM1-2 fragment (Sus scrofa, UniProt A0SEH0); experiment: BLI
[5] = biological target: human C6 FIM1-2 fragment (residues 766–934) with an N-terminal 10xHis-tag (human, UniProt P13671); experiment: BLI
Chain of human C6 FIM1-2 fragment (residues 766–934) with an N-terminal 10xHis-tag (human, UniProt P13671) (P13671 766-934): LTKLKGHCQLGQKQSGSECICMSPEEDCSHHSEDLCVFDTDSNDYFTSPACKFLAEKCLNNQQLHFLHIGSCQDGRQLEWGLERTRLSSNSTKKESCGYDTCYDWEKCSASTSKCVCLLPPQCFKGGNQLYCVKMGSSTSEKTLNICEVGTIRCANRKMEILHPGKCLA

[6] = biological target: Macaca C6 FIM1-2 fragment (Macaca fascicularis (entry of printed …, UniProt A0A2K5W3S5)); experiment: BLI
[7] = biological target: C6∆FIM1-2 (1–762) with a C-terminal His-tag (human, UniProt P13671); experiment: SEC
Chain of C6∆FIM1-2 (1–762) with a C-terminal His-tag (P13671 22-762): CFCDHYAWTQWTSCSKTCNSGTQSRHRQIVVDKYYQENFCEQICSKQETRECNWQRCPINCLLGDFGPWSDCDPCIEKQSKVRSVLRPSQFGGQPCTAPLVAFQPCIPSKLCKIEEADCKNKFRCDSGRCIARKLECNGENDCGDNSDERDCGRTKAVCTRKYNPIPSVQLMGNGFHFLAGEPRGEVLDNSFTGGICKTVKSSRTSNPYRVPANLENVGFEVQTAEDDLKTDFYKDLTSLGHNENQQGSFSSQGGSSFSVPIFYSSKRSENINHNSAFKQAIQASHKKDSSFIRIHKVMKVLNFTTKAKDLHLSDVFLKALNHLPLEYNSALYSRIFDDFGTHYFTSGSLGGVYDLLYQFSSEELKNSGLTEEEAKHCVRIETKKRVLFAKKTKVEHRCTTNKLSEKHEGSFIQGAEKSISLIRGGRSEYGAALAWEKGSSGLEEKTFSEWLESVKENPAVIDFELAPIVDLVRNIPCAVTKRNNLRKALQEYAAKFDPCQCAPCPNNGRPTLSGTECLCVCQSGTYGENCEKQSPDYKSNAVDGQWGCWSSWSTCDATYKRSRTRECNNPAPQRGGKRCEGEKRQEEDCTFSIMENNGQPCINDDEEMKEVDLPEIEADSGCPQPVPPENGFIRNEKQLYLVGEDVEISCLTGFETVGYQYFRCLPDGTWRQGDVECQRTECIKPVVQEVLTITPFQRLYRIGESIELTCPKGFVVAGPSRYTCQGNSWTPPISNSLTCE

Chain of human C6 FIM1-2 fragment (residues 766–934) with an N-terminal 10xHis-tag (human, UniProt P13671 766-934) (P13671 766-934): as the sequence (P13671 766-934) above
Chain of recombinant full-length human C6 with a C-terminal 10xHis-tag (P13671 22-934): as the sequence (P13671 22-934) above

Kd [1]: 10 to 20 nM | Kd [2]: 5 nM
B1: human C5 C345c domain (residues 1528–1676) (domain or fragment, UniProt P01031 1528-1676, looked up)
chain: VEADCGQMQEELDLTISAETRKQTACKPEIAYAYKVSITSITVENVFVKYKATLLDIYKTGEAVAEKDSEITFIKKVTCTNAELVKGRQYLIMGKEALQIKYNFSFRYIYPLDSLTWIEYWPRDTTCSSCQAFLANLDEFAEDIFLNGC

Kd [3]: 0.3 nM | Kd (dog C6 FIM1-2 fragment): ~5 nM | Kd [4]: ~5 nM | Kd [5]: 2.8 nM | Kd [6]: ~5 nM
B2: CP010 Fab (Fab, V domains shown)
VH: EVQLVESDGGLVQPGGSLKLSCAASGFTFSDYYMAWVRQGPGKGLEWVATINYDGSSTYYRESVKGRFTISRDNAKNTLYLQMNSLRAEDTATYYCARPSTEALFAYWGHGTLVTVSS
VL: DVVLTQTPSTLSVTPGQPASISCRSSQSLLNDVGNTYLYWYLQKPGQSPQLLIYLVSDLGSGVPNRFSGSGSGTDFTLKISRVEAEDVGIYYCMQASHAPYTFGQGTNLEIK

binding result [7]: no binding
B3: CP010, fully humanized version of 7E5 with a human IgG4 S228P constant region (antibody, V domains shown)
VH: B2 VH
VL: B2 VL
